Results published in US20100280227A1 (Genentech, published 2010).
Like-named read-outs stand apart in the source and are kept apart here. One block for each binder: values may come before it.

B3: mouse BR3 extracellular domain (receptor)
chain: MGARRLRVRSQRSRDSSVPTQCNQTECFDPLVRNCVSCELFHTPDTGHTSSLEPGTALQPQEGS
notes: also called mBR3-ECD; mBR-ECD

Key:
mouse BR3-Fc = biological target: T1, mouse BR3-Fc (mouse); test: ELISA: mBAFF-Flag titrated on coated mBR3-Fc, then F(ab)'2 phage #3 (V3) added and detected
T1 construct: (BR3 ECD fused to a murine Fc); also called mBR3-Fc; murine BR3-Fc
T1 chain: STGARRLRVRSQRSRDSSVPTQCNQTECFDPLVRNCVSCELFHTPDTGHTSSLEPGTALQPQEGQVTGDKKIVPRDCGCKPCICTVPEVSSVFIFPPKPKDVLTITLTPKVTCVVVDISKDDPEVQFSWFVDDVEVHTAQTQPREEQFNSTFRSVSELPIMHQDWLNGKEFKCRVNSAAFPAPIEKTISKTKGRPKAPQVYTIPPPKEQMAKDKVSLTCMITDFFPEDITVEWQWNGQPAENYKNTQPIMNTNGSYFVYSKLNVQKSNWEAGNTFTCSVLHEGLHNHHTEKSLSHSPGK

[1] = biological target: T2, mouse BR3 (form in the mapping assay not stated) (mouse, UniProt Q9D8D0 1-71, limits assumed); test: competition ELISA on murine BR3 against biotinylated B9C11
T2 construct: May be the same as m2, m6 or m10
T2 sequence (looked up): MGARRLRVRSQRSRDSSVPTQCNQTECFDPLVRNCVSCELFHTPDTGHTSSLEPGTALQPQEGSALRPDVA

[2] = biological target: T3, murine BR3 expressed on cells (mouse, UniProt Q9D8D0 1-175); test: BHK cells expressing murine BR3, competitive binding assay against BAFF
T3 construct: whole, on cells; also called murine BR3 on BHK cells; mouse BR3
T3 sequence (looked up): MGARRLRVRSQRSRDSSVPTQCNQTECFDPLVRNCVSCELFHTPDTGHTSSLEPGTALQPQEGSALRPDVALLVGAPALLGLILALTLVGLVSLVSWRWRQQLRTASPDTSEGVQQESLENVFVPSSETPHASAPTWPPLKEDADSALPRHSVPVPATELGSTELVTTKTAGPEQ

[3] = biological target: T4, human BR3 displayed on phage, H31 alanine-scan mutant (human, UniProt Q96RJ3 1-61, limits assumed); test: shotgun alanine scan of phage-displayed BR3; F against wild type;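 also: Phage-displayed BR3 shotgun alanine libraries, two selection rounds for anti-BR3 antibody binding, normalized to a display selection, F above 1 marks a harmful substitution, below 1 a beneficial one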
T4 construct: One position of the shotgun alanine scan of BR3 on phage

[4] = biological target: T5, human BR3 displayed on phage, F25 alanine-scan mutant (human, UniProt Q96RJ3 1-61, limits assumed); test: as above
T5 construct: One position of the shotgun alanine scan of BR3 on phage

[5] = biological target: T6, human BR3 displayed on phage, V29 alanine-scan mutant (human, UniProt Q96RJ3 1-61, limits assumed); test: as above
T6 construct: One position of the shotgun alanine scan of BR3 on phage

[6] = biological target: human BR3 displayed on phage, mutated at A34 in the alanine scan (human, UniProt Q96RJ3 1-61, limits assumed); test: as above
[7] = biological target: T7, human BR3 displayed on phage, G36 alanine-scan mutant (human, UniProt Q96RJ3 1-61, limits assumed); test: as above
T7 construct: One position of the shotgun alanine scan of BR3 on phage

[8] = biological target: T8, human BR3 displayed on phage, V33 alanine-scan mutant (human, UniProt Q96RJ3 1-61, limits assumed); test: as above
T8 construct: One position of the shotgun alanine scan of BR3 on phage

[9] = biological target: T9, human BR3 displayed on phage, L27 alanine-scan mutant (human, UniProt Q96RJ3 1-61, limits assumed); test: as above
T9 construct: One position of the shotgun alanine scan of BR3 on phage

[10] = biological target: T10, human BR3 displayed on phage, L38 alanine-scan mutant (human, UniProt Q96RJ3 1-61, limits assumed); test: as above
T10 construct: One position of the shotgun alanine scan of BR3 on phage

[11] = biological target: human BR3 displayed on phage, mutated at A22 in the alanine scan (human, UniProt Q96RJ3 1-61, limits assumed); test: as above
[12] = biological target: T11, human BR3 displayed on phage, T17 alanine-scan mutant (human, UniProt Q96RJ3 1-61, limits assumed); test: as above
T11 construct: One position of the shotgun alanine scan of BR3 on phage; the F value gives the effect of this change against wild type; See m1 for the parent

[13] = biological target: T12, human BR3 displayed on phage, T40 alanine-scan mutant (human, UniProt Q96RJ3 1-61, limits assumed); test: as above
T12 construct: One position of the shotgun alanine scan of BR3 on phage

[14] = biological target: T13, human BR3 displayed on phage, L28 alanine-scan mutant (human, UniProt Q96RJ3 1-61, limits assumed); test: as above
T13 construct: One position of the shotgun alanine scan of BR3 on phage

[15] = biological target: T14, human BR3 displayed on phage, R39 alanine-scan mutant (human, UniProt Q96RJ3 1-61, limits assumed); test: as above
T14 construct: One position of the shotgun alanine scan of BR3 on phage

[16] = biological target: T15, human BR3 displayed on phage, D26 alanine-scan mutant (human, UniProt Q96RJ3 1-61, limits assumed); test: as above
T15 construct: One position of the shotgun alanine scan of BR3 on phage

[17] = biological target: T16, human BR3 displayed on phage, P21 alanine-scan mutant (human, UniProt Q96RJ3 1-61, limits assumed); test: as above
T16 construct: One position of the shotgun alanine scan of BR3 on phage

[18] = biological target: T17, human BR3 displayed on phage, R42 alanine-scan mutant (human, UniProt Q96RJ3 1-61, limits assumed); test: as above
T17 construct: One position of the shotgun alanine scan of BR3 on phage

[19] = biological target: T18, human BR3 displayed on phage, E23 alanine-scan mutant (human, UniProt Q96RJ3 1-61, limits assumed); test: as above
T18 construct: One position of the shotgun alanine scan of BR3 on phage

[20] = biological target: T19, human BR3 displayed on phage, V20 alanine-scan mutant (human, UniProt Q96RJ3 1-61, limits assumed); test: as above
T19 construct: One position of the shotgun alanine scan of BR3 on phage

[21] = biological target: T20, human BR3 displayed on phage, L37 alanine-scan mutant (human, UniProt Q96RJ3 1-61, limits assumed); test: as above
T20 construct: One position of the shotgun alanine scan of BR3 on phage

[22] = biological target: T21, human BR3 displayed on phage, P41 alanine-scan mutant (human, UniProt Q96RJ3 1-61, limits assumed); test: as above
T21 construct: One position of the shotgun alanine scan of BR3 on phage

[23] = biological target: T22, human BR3 displayed on phage, P18 alanine-scan mutant (human, UniProt Q96RJ3 1-61, limits assumed); test: as above
T22 construct: One position of the shotgun alanine scan of BR3 on phage

[24] = biological target: T23, human BR3 expressed on cells (human, UniProt Q96RJ3 1-184); test: BJAB cells, competition with biotin-BAFF
T23 construct: whole, on cells; also called BR3 on BJAB cells; cell surface BR3

[25] = biological target: T23, human BR3 expressed on cells; test: BJAB cells, competition with biotin-BAFF; remark: listed apart in the source
[26] = biological target: T2, mouse BR3 (form in the mapping assay …); test: competition ELISA on murine BR3 against biotinylated V3-1m
[27] = biological target: T23, human BR3 expressed on cells; test: BJAB cells, direct binding
[28] = biological target: B3; test: SPR, IgG on chip, BR3 ECD in solution
[29] = biological target: T24, human BR3 extracellular domain (human, UniProt Q96RJ3 1-61); test: SPR, IgG on chip, BR3 ECD in solution
T24 construct: biotinylated where used as tracer; also called hBR3-ECD; BR3-ECD

[30] = biological target: T23, human BR3 expressed on cells; test: BJAB cells, direct binding; remark: listed apart in the source
V3-46s Fab [31] = biological target: T25, V3-46s Fab; test: phage competition ELISA, ECD in solution (printed Phage50)
T25 construct: N31S mutant of V3-46; also called V46s; N31S

V3-46s-9 Fab = biological target: T26, V3-46s-9 Fab; test: as above
T26 construct: soluble Fab in SPR; also called V46s-9

V3-46s-42 Fab = biological target: T27, V3-46s-42 Fab; test: as above
T27 construct: soluble Fab in SPR; also called V46s-42

V3-12 Fab = biological target: T28, V3-12 Fab; test: phage competition ELISA, ECD in solution
T28 construct: soluble Fab in SPR

V3-11 Fab = biological target: T29, V3-11 Fab; test: phage competition ELISA, ECD in solution
T29 construct: soluble Fab in SPR

V3-1 Fab [32] = biological target: T30, V3-1 Fab; test: phage competition ELISA, ECD in solution
T30 construct: soluble Fab in SPR

V3-13 Fab = biological target: T31, V3-13 Fab; test: phage competition ELISA, ECD in solution
T31 construct: soluble Fab in SPR

V3-46s Fab [33] = biological target: T25, V3-46s Fab; test: phage competition ELISA, ECD in solution
V3-1 Fab [34] = biological target: T30, V3-1 Fab; test: phage competition ELISA, ECD in solution; remark: listed apart in the source
V3-46s Fab [35] = biological target: T25, V3-46s Fab; test: phage competition ELISA, ECD in solution (printed Phage ID50)
V3-46 phage clone = biological target: T32, V3-46 phage clone; test: as above
T32 construct: also called V3-46 WT; clone 46

V3-46 N31Q phage clone = biological target: T33, V3-46 N31Q phage clone; test: as above
T33 construct: also called V3-46q

V3-46 N31A phage clone = biological target: T34, V3-46 N31A phage clone; test: as above
T34 construct: also called V3-46a

T33 sequence (VH, as listed by the source, chain 1 of 2): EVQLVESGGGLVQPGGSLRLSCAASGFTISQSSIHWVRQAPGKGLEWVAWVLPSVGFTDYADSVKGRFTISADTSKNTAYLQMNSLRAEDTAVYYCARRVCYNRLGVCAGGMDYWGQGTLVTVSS
T33 sequence (VL, as listed by the source, chain 2 of 2): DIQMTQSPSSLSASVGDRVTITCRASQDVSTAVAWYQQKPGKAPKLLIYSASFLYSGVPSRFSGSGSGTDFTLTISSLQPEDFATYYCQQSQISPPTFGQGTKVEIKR
T28 sequence (VH, as listed by the source, chain 1 of 2): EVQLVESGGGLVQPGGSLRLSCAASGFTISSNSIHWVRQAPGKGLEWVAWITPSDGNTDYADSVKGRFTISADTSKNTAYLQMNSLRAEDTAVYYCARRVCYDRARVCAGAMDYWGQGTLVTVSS
T28 sequence (VL, as listed by the source, chain 2 of 2): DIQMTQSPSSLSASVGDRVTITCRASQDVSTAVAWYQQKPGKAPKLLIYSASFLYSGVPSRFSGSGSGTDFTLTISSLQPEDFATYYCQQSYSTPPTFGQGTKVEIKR
T27 sequence (VH, as listed by the source, chain 1 of 2): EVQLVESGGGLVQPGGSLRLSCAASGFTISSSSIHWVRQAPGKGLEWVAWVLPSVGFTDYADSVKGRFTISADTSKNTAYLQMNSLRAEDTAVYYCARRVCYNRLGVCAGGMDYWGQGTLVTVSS
T27 sequence (VL, as listed by the source, chain 2 of 2): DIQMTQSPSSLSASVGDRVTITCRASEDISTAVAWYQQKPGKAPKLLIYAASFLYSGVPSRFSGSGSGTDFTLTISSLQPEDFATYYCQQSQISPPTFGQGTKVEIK
T26 sequence (VL, as listed by the source, chain 2 of 2): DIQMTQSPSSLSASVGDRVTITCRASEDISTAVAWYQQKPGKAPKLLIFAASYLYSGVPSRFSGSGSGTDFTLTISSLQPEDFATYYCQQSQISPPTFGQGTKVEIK
T29 sequence (VH, as listed by the source, chain 1 of 2): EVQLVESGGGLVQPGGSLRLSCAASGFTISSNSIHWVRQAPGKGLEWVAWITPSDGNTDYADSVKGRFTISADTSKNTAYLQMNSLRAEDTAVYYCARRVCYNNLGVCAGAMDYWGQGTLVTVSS
T29 sequence (VL, as listed by the source, chain 2 of 2): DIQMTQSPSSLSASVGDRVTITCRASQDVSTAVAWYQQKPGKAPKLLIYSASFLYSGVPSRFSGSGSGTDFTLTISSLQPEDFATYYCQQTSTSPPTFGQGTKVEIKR

IC50 (read off the curve) (mouse BR3-Fc): ~2 nM
B1: mBAFF-Flag protein (ligand, mouse, UniProt Q9WU72 127-309, looked up, not shown: small tags and cut ends)
chain: AFQGPEETEQDVDLSAPPAPCLPGCRHSQHDDNGMNLRNIIQDCLQLIADSDTPTIRKGTYTFVPWLLSFKRGNALEEKENKIVVRQTGYFFIYSQVLYTDPIFAMGHVIQRKKVHVFGDELSLVTLFRCIQNMPKTLPNNSCYSAGIARLEEGDEIQLAIPRENAQISRNGDDTFFGALKLL

IC50 (read off the curve) [1]: ~800 ng/mL
IC50 [2]: 36.2 nM
F value [3]: 0.1
F value [4]: 21
F value [5]: 92
F value [6]: 13
F value [7]: 0.7
F value [8]: 14
F value [9]: 1.4
F value [10]: 1.4
F value [11]: 0.7
F value [12]: 0.5
F value [13]: 0.6
F value [14]: 98
F value [15]: 0.4
F value [16]: 8.7
F value [17]: 0.6
F value [18]: 0.9
F value [19]: 2.4
F value [20]: 0.9
F value [21]: 0.7
F value [22]: 1.6
F value [23]: 0.8
IC50 [24]: 8.9 nM
IC50 [25]: 2.47 nM
IC50 (read off the curve) [26]: ~600 ng/mL
EC50 [27]: 3.37 nM
Kd [28]: 1.56 nM
koff [28]: 0.000131 s⁻¹
kon [28]: 84000 M⁻¹ s⁻¹
Kd [29]: 0.64 nM
koff [29]: 0.000171 s⁻¹
kon [29]: 267000 M⁻¹ s⁻¹
EC50 [30]: 4.3 nM
B2: V3-1m (antibody, mouse IgG2a, V domains shown)
VH: EVQLVESGGGLVQPGGSLRLSCAASGFTISSNSIHWVRQAPGKGLEWVAWITPSDGNTDYADSVKGRFTISADTSKNTAYLQMNSLRAEDTAVYYCARRVCYNRLGVCAGGMDYWGQGTLVTVSS
VL: DIQMTQSPSSLSASVGDRVTITCRASQDVSTAVAWYQQKPGKAPKLLIYSASFLYSGVPSRFSGSGSGTDFTLTISSLQPEDFATYYCQQSRITPPTFGQGTKVEIKR
notes: also called mV3-1; V3-1 (IgG)

Binder: B3
IC50 (V3-46s Fab [31]): 1.7 nM
IC50 (V3-46s-9 Fab): 0.18 nM
IC50 (V3-46s-42 Fab): 0.23 nM
IC50 (V3-12 Fab): 57 nM
IC50 (V3-11 Fab): 8.4 nM
IC50 (V3-1 Fab [32]): 5.4 nM
IC50 (V3-13 Fab): 33 nM
IC50 (V3-46s Fab [33]): 1.53 nM
IC50 (V3-1 Fab [34]): 5.4 nM
IC50 (V3-46s Fab [35]): 1.53 nM
IC50 (V3-46 phage clone): 1.42 nM
IC50 (V3-46 N31Q phage clone): 2.44 nM
IC50 (V3-46 N31A phage clone): 2.89 nM
